The term Kd denotes the concentration at which binding is half-saturated. One may read the koff as a measure of how fast the partners let go of each other. As usually defined, the kon is a measure of how fast the partners come together. For orientation: EC50 means the concentration that produces a half-maximal response.

Positions count from the first letter of the chain named.

The record followed here is EP4810515A1 (Shanghai Haiju Biological Technology Co., Ltd., dated 2026).

The labels stand for the following.
T1: GDF15 protein (R&D, 8146-GD) (UniProt Q99988 197-308)
T1 construct: analyte of the SPR assay
T1 sequence (looked up): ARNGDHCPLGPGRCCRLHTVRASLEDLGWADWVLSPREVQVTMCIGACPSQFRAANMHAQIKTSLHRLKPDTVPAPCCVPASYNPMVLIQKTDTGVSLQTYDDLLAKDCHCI

T2: mouse GDF15 recombinant protein (Kactus, GDF-MM215) (mouse, UniProt Q9Z0J7 189-303, limits assumed)
T2 construct: also called mGDF-15.hFc; murine GDF15; not shown: human Fc (hFc)
T2 sequence (looked up): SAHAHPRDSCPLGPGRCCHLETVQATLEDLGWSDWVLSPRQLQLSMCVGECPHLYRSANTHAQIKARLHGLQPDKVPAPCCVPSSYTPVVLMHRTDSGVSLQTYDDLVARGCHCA

T3: human GDF15 recombinant protein (ACRO, GD5-H5149) (human, UniProt Q99988 197-308)
T3 sequence (looked up): T1 sequence (looked up)

T4: cynomolgus monkey GDF15 recombinant protein (Kactus, GDF-CM215) (cynomolgus monkey, UniProt G7PWZ3 197-308, limits assumed)
T4 construct: also called cynoGDF-15.hFc; cynoGDF15; not shown: human Fc (hFc)
T4 sequence (looked up): T1 sequence (looked up) with H6R, R21H, A54E, T63M, S64N, I112V

B1: G2-H5-H4.2L4-hIgG1(LALAGA,-K) (antibody, V domains shown)
VH: EVQLVQSGAEVKKPGASVKVSCKASGYTLTDYNLNWVRQATGQGLEWIGDLNPYNQGIIYNQKFKGRATLTVNKSISTAYMELSSLRSEDTAVYYCAREGRGGAWFDSWGQGTLVTVSS
VL: DIQMTQSPSSLSASVGDRVTITCKASEDIYHRLAWYQQKPGKAPKLLISGATSLETGIPSRFSGSGSGTDYTFTISSLQPEDIATYYCQQYWSPPFTFGGGTKVEIKR
notes: humanized from G2-CH5-HP2
B2: G2-CH5 (antibody, human IgG1, kappa, V domains shown)
VH: EVLLQQSGPELVKPGASVKIACKASGYTLTDYNLNWVKQSHGKSLEWIGDLNPYNGGIIYNQKFKGKATLTVDKSSSTAYMELRSLTSEDIAVYYCAREGRGGAWFDSWGQGTLVTVSA
VL: DIQMTQSSSSFSVSLGDRVTITCKASEDIYHRLAWYQQKPGNAPRLLISGATSLETGIPSRFSGSGSGKDYALSITSLQTEDVGTYYCQQYWSPPFTFGSGTKLEIKR
notes: chimeric: murine variable regions on human IgG1 constant region mutant (LALAGA, -K)
B3: G2-CH12 (antibody, human IgG1, kappa, V domains shown)
VH: QVQLQQSGAELVKPGASVKLSCKASGYTFTNYDINWVRQRPEQGLEWIGWIFPGDGSTKYNEKFKDKATLTTDTSSSTAYMQLIRLTSEDSAVYFCARILYWGQGTTLTVSS
VL: DNKMTQSPSSMYASLGERVTITCKASQDINSYLSWFQQKPGKSPKTLIYRANKLVDGVPSRFSGSGSGQDYSLTISSLEYEDMGIYHCLQYDEFPYTFGGGTKLEIKR
notes: as for B2
B4: G2-CH1 (antibody, human IgG1, kappa, V domains shown)
VH: QVTLKESGPGILQPSQTLSLTCSFSGFSLSTYGIGVGWIRQPSGKGLEWLAHIWWNNNKYFNTALKSRLTISKDTSNNQVFLKIASVDTADSATYYCARMGYDIMDYWGQGTSVTVSS
VL: DIVMTQSHKFMSTSVGDRVSITCKASQDVNTAVAWYQQKPGQSPKFLIYSSSYRYTGVPDRFTGSGSGTDFTFTISSVQAEDLAVYYCQQHYSTPWTFGGGTKLEIKR
notes: as for B2
B5: G2-CH8 (antibody, human IgG1, kappa, V domains shown)
VH: B4 VH with N57D, F61Y, S92T, M100L, G101A, I104Y, M105V, Y107S, S113T, V114L
VL: DIVMTQAAFSNPVTLGTSASISCRSSKSLLHSNGITYLYWYLQKPGQSPQLLIYQMSNLVSGVPDRFSSSGSGTDFTLRISRVEAEDVGVYYCAQNLELPPTFGAGTKLELKR
notes: as for B2
B6: G2-CH16 (antibody, human IgG1, kappa, V domains shown)
VH: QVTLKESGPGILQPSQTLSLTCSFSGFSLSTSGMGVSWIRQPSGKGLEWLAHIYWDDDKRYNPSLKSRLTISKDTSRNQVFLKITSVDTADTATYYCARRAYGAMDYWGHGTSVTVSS
VL: DIVMTQSQKFMSTSVGDRVSVTCKASQNVGTNIAWFQQKPGQSPEALIYSASYRYSGVPDRFTGSGSGTDFTLTISNVQSEDLAEYFCQQYNTYPHTFGGGTKLEIRR
notes: as for B2
B7: G2-CH2 (antibody, human IgG1, kappa, V domains shown)
VH: QVTLKESGPGILQPSQTLSLTCSFSGFSLTISGMGVSWIRQPSGKGLEWLAHIYWDDDKRYNPSLKSRLTISKDTSSNQVFLEITSVDTADTATYYCVRAGWDFFDYWGQGTTLTVSS
VL: B6 VL with I33V, F36Y, E45K, A46G, T93S, H96W, R107K
notes: as for B2
B8: G2-CH3 (antibody, human IgG1, kappa, V domains shown)
VH: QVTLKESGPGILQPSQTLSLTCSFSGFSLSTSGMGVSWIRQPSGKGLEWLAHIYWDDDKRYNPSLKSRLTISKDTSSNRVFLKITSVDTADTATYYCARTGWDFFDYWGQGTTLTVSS
VL: B6 VL with I33V, F36Y, E45K, A46G, S76N, T93S, H96Y, R107K
notes: as for B2
B9: G2-CH13 (antibody, human IgG1, kappa, V domains shown)
VH: EVLLQQSGPELVKPGASVKITCKASGYTFTDYNMNWVKQSHGKSLEWIGDINPYNGGIIYNQKFRGKATLTIDKSSSTAYMELRSLTSEDTAVYYCAREVRRGSFFDYWGQGTTLTVSS
VL: DIQMTQSPASLSVSVGETVTITCRASENIYSNLAWYQQKQGKSPQLLVYAATDLADGVPSRFSGSGSGTQYSLKINSLQSEDFGNYHCQLFWGTPTFGGGTKLEIKR
notes: as for B2
B10: G2-CH14 (antibody, human IgG1, kappa, V domains shown)
VH: QVTLKESGPGILQPSQTLSLTCSFSGFSLSTSGMGVSWIRQPSGKGLEWLALIYWDDDKRYNPSLKSRLTISKDASSNQVFLKITSVDTADTATYYCIQSPWDWFAYWGQGTLVTVSA
VL: EIVLTQSPALMAASPGEKVTITCSVSSSISSSNLHWYQQKSETSPKPWIYGTSNLASGVPVRFSGSGSGTSYSLTISSMEAEDAATYYCQQWSSYPLTFGAGTKLELKR
notes: as for B2
B11: G2-CH6 (antibody, human IgG1, kappa, V domains shown)
VH: EVQLRQSGPELVKPGTSMKISCKASAYSFTDYNMNWVKQSHGKNLEWIGLINPYNGGTRYNQNFKGKATITVDRSSTTAYMELLSLTSEDSAIYYCAREVRLGNALDYWGQGTSVTVSS
VL: DIQMTQSPASLSVSVGETVTITCRPSESIYSNLAWYQQKQGKSPQLLVYAATNLADGVPSRFSGSGSGTQYSLKINSLQSEDFGTYYCQHFWGIPWTFGGGTKLEIKR
notes: as for B2
B12: G2-CH7 (antibody, human IgG1, kappa, V domains shown)
VH: EVQLQQSGPELVKPGASLKISCKASGYSFTGYNMNWVKQSHGKNLEWIGLINPSNGGSSYSQKFKGKATLTVDKSSSTAYMELLSLTSKDSAVYYCAREVRLGNALDYWGQGTSVTVSS
VL: B11 VL with P25A, S28N, A55G, V58A, T85S, I94T
notes: as for B2
B13: G2-CH9 (antibody, human IgG1, kappa, V domains shown)
VH: B12 VH with L18M, H41Q, S54Y, S58T, S59I, S61N, S77T, K89E, L106M
VL: B11 VL with P25A, S28N, Y49S, N76I, E81V, T85S, I94T
notes: as for B2

One experiment addresses T1, GDF15 protein (R&D, 8146-GD). Put plainly: SPR Biacore T200, antibody captured by anti-hFc on CM5, GDF15 as analyte, 1:1 model.
With B1, the affinity, expressed as Kd, was 0.0349 nM; the koff was 0.00026 s⁻¹; the kon was 7.44e+06 M⁻¹ s⁻¹.

A further experiment addresses T2, mouse GDF15 recombinant protein …. Put plainly: ELISA, coated mGDF-15.hFc.
For B2, the EC50 was found to be 0.12 nM.
Consider B3, for which the EC50 came to 5.64 nM.
For B4, the EC50 is 0.17 nM.
B5: the EC50 turned out to be 0.37 nM.
For B6, the EC50 amounted to 0.32 nM.
For the molecule B7, the EC50 came out at 0.26 nM.
In the case of B8, the concentration giving a half-maximal response (EC50) came out at 56.5 nM.
Still for that read-out and setting: with B9 the figure was 0.22 nM; with B10, 0.76 nM.
Same read-out and setting: with B11 the figure was 0.11 nM; with B12, 0.12 nM.
On the same count and under the same terms, under B13 stands 0.11 nM.

In a further experiment the target is T3, human GDF15 recombinant protein (ACRO, …). Put plainly: cell-based or functional assay.
With B2, the “IC50, luciferase reporter gene cell strain (mGFRAL/RET HEK293) with hGDF15” value (“IC50 … (mGFRAL/RET HEK293) with hGDF15” below) is 3.45 nM.
The same measure, in the same setting: under B3 stands 6.8 nM; under B4, 3.75 nM; under B5, 3.05 nM.
B6: the “IC50 … (mGFRAL/RET HEK293) with hGDF15” value came to 0.45 nM.
As for B7, the “IC50 … (mGFRAL/RET HEK293) with hGDF15” value was determined as 3.24 nM.
Consider B8, for which the “IC50 … (mGFRAL/RET HEK293) with hGDF15” value is 3.55 nM.
Regarding B9, the “IC50 … (mGFRAL/RET HEK293) with hGDF15” value is 11.7 nM.
Consider B10, for which the “IC50 … (mGFRAL/RET HEK293) with hGDF15” value came to 0.2 nM.
Consider B11, for which the “IC50 … (mGFRAL/RET HEK293) with hGDF15” value was found to be 4.39 nM.
On to B12, for which the “IC50 … (mGFRAL/RET HEK293) with hGDF15” value was 3.83 nM.
Still for that read-out and setting: under B13 stands 1.42 nM.

In the next experiment the target is T4, cynomolgus monkey GDF15 recombinant …. Put plainly: ELISA, coated cynoGDF-15.hFc. For orientation: ELISA stands for enzyme-linked immunosorbent assay.
On to B2, for which the EC50 came to 0.0929 nM.
Consider B3, for which the EC50 is 0.211 nM.
On the same count and under the same terms, under B4 stands 0.086 nM; under B5, 0.0934 nM.
B6: the half-maximal effective concentration (EC50) is 0.0909 nM.
With B7, the concentration for a half-maximal effect (EC50) was 0.098 nM.
As to B8, the EC50 stood at 0.102 nM.
B9: the EC50 was 0.0654 nM.
In the case of B10, the EC50 was 0.0721 nM.
In the case of B11, the 50% effective concentration (EC50) was found to be 0.0892 nM.
In the case of B12, the concentration giving a half-maximal response (EC50) amounted to 0.104 nM.
For B13, the EC50 turned out to be 0.097 nM.

A further experiment concerns the target T3, human GDF15 recombinant protein (ACRO, …). Put plainly: ELISA, coated hGDF-15.His.
With B2, the 50% effective concentration (EC50) was determined as 3.94 pM.
Turning to B3, the EC50 worked out at 10.6 pM.
Still for that read-out and setting: with B4 the figure was 3.87 pM.
Take B5: the EC50 came to 1.22 pM.
Turning to B6, the half-maximal effective concentration (EC50) came out at 4.76 pM.
Consider B7, for which the EC50 is 6.27 pM.
Consider B8, for which the EC50 came out at 4.53 pM.
With B9, the 50% effective concentration (EC50) turned out to be 3.82 pM.
As for B10, the EC50 was found to be 6.63 pM.
Consider B11, for which the EC50 came out at 4.34 pM.
As for B12, the EC50 is 5.52 pM.
On to B13, for which the concentration for a half-maximal effect (EC50) worked out at 6.34 pM.

The target is the same in a further experiment. Briefly: cell-based or functional assay. This is another data set of the same source.
Take B1: the “IC50, reporter gene cell strain (GFRAL/RET)” value is 81 pM.
